Test results as given in patent EP2080771A2 (Maxygen Aps, dated 2009).
Where a chain is given by its changes, count along the chain named. Names and notes keep the numbering of the source. Read-outs that look alike come from different tables or passages of the source. Each block holds one binder with its values, some of them ahead of it.

How the values were obtained:
Assay in all cases: cell-based or functional assay
[1] = biological target: T1, Interferon type I receptors on HeLa cells (UniProt P17181 28-557; P48551 27-515, limits assumed)
T1 sequence (looked up) 1: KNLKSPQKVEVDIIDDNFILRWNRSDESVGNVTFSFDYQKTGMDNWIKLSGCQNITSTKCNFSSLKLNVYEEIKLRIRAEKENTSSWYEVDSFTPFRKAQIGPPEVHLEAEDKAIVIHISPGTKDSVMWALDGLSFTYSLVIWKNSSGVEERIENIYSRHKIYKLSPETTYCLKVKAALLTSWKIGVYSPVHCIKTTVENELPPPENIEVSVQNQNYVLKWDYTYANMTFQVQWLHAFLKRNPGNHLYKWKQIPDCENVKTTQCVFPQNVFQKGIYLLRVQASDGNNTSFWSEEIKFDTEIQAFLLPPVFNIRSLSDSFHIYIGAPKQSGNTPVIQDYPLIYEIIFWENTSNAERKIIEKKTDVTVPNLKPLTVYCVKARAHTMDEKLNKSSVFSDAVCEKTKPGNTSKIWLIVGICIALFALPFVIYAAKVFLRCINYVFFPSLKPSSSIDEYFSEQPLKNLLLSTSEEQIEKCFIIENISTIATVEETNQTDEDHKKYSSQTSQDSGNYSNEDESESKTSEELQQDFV
T1 sequence (looked up) 2: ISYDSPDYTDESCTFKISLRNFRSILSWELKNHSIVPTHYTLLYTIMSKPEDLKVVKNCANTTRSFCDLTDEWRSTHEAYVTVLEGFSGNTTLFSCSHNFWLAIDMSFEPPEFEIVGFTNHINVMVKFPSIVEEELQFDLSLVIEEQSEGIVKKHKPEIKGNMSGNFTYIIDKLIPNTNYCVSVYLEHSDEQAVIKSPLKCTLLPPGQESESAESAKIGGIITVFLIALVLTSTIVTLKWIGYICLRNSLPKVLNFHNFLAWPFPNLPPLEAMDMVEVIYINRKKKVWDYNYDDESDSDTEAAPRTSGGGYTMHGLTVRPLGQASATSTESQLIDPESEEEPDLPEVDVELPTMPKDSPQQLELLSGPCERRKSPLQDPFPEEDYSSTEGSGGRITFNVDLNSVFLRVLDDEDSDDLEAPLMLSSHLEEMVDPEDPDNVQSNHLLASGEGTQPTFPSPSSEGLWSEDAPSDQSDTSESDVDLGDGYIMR

[2] = biological target: T1, Interferon type I receptors on HeLa …; remark: listed apart in the source
[3] = biological target: T1, Interferon type I receptors on HeLa …; remark: listed apart in the source

B4: [D110V, F111N, R113T]hINF-β (ligand)
chain: MSYNLLGFLQRSSNFQCQKLLWQLNGRLEYCLKDRMNFDIPEEIKQLQQFQKEDAALTIYEMLQNIFAIFRQDSSSTGWNETIVENLLANVYHQINHLKTVLEEKLEKEVNTTGKLMSSLHLKRYYGRILHYLKAKEYSHCAWTIVRVEILRNFYFINRLTGYLRN
modifications: introduced N-linked glycosylation site at position 111, besides the natural site at N80 (expressed in CHO K1 cells)
INF-β activity, culture medium of transfected CHO K1 cells [2]: 15100 IU/ml

B5: [D110F, F111N, R113T]hINF-β (ligand)
chain: B4 chain with V110F
modifications: introduced N-linked glycosylation site at position 111, besides the natural site at N80 (expressed in CHO K1 cells)
INF-β activity, culture medium of transfected CHO K1 cells [2]: 50900 IU/ml

B6: [F111N+R113T]hINF-β variant (ligand)
chain: B4 chain with V110D
modifications: introduced N-linked glycosylation site at position 111 (used only about 50%), besides the natural site at N80 (expressed in CHO K1 cells)
specific activity relative to wt hINF-β [3]: ~2 fold of wt hINF-β | INF-β activity, culture medium of transfected CHO K1 cells [2]: 58600 IU/ml

B7: [Q48F, Q49N, Q51T]hINF-β (ligand)
chain: B4 chain with Q48F, Q49N, Q51T, V110D, N111F, T113R
modifications: introduced N-linked glycosylation site at position 49, besides the natural site at N80 (expressed in CHO K1 cells)
INF-β activity, culture medium of transfected CHO K1 cells [1]: 53100 IU/ml

Other lines, results leading:

INF-β activity, culture medium of transfected CHO K1 cells [1]: 65900 IU/ml
B1: [Q48V, Q49N, Q51T]hINF-β (ligand)
chain: B4 chain with Q48V, Q49N, Q51T, V110D, N111F, T113R
modifications: introduced N-linked glycosylation site at position 49, besides the natural site at N80 (expressed in CHO K1 cells)

INF-β activity, culture medium of transfected CHO K1 cells [1]: 45100 IU/ml
B2: [Q48W, Q49N, Q51T]hINF-β (ligand)
chain: B4 chain with Q48W, Q49N, Q51T, V110D, N111F, T113R
modifications: introduced N-linked glycosylation site at position 49, besides the natural site at N80 (expressed in CHO K1 cells)

INF-β activity, culture medium of transfected CHO K1 cells [1]: 135000 IU/ml
B3: [Q49N+Q51T]hINF-β variant (ligand)
chain: B4 chain with Q49N, Q51T, V110D, N111F, T113R
modifications: introduced N-linked glycosylation site at position 49 (used only about 60%), besides the natural site at N80 (expressed in CHO K1 cells)
